Here are results for 1 molecule from article PMC9706563 (Journal of Medicinal Chemistry, 2022).

Ends that are not written are not given here.

This experiment deals with T1, PRMT5-MEP50 complex (full-length, purified) (human | , UniProt O14744 1-637; Q9BQA1 1-342).
T1 construct: Protein arginine methyltransferase 5 (PRMT5), human, of the full-length PRMT5-MEP50 complex; MEP50 (WDR77), of the full-length PRMT5-MEP50 complex; also called native PRMT5-MEP50; PRMT5-MEP50 methyltransferase; copies: 4 + 4
T1 sequence (O14744 whole entry, chain 1 of 2): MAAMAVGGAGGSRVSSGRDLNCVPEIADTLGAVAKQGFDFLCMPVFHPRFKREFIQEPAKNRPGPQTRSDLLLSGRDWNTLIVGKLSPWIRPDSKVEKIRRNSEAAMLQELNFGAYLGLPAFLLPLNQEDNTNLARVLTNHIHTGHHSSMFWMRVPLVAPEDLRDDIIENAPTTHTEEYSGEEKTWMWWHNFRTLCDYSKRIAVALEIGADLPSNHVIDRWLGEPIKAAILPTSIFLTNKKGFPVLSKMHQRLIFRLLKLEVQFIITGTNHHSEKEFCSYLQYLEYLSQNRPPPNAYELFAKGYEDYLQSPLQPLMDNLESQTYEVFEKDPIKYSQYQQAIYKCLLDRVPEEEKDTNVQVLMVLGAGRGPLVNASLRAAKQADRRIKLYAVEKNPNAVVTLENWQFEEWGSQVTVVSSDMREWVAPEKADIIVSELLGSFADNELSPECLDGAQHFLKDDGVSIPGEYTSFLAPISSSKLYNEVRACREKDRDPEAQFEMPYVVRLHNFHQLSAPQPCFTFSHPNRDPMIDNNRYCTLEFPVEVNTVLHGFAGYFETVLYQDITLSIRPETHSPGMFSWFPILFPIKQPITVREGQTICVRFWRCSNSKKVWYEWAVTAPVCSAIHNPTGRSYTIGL
T1 sequence (Q9BQA1 whole entry, chain 2 of 2): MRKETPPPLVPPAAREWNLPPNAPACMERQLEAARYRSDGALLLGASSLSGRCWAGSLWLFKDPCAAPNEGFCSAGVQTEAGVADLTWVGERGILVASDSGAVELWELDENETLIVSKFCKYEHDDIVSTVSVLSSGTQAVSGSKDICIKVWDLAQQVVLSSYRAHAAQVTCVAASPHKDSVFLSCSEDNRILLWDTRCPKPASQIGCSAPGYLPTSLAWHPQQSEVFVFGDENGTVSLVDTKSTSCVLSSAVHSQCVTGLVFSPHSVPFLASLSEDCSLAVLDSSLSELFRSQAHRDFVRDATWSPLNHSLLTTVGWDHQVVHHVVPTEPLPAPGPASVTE
Nature of the experiment: fluorescence polarisation; competitive; tracer fluorescently labeled … (S1) 1 nM, PRMT5-MEP50 600 nM, unlabeled peptide titrated in two-fold dilutions; 50 mM HEPES, 250 mM NaCl, 1 mM TCEP, 0.01% Tween 20, pH 8.0, room temperature. Particulars: both partners purified. For orientation: In fluorescence polarisation assays a small probe gives low polarisation when free and higher when bound to something large.

B1: fluorescently labeled SRVVPGQFDDADSSD RioK1 sequence (peptide)
peptide: SRVVPGQFDDADSSD
modifications: not fully specified; also: FITC label, position not given here
notes: also called S1; source: synthetic peptide
Regarding B1, the binding result was “binds”.
